Assay [1] deals with WT nucleosomal array (recombinant Xenopus laevis histone octamers on 601-177-12 or 601-177-36 DNA) (Xenopus laevis). The experiment in a line: AUC.
Assay [2] addresses WT nucleosomal array with Sir2/4 complex added beforehand (S. cerevisiae | Xenopus laevis) (UniProt P06700). The experiment in a line: AUC.

For the substance “TAP-tagged Sir2/4 complex (from UniProt P06700;P11978)”, in assay [1], the stoichiometry N (Sir2/4 per nucleosome) worked out at 1, the stoichiometry N (complexes bound per array) came out at 4 and the stoichiometry N (molecules of Sir2/4 per array) was determined as 11.
As to “FLAG-tagged Sir3 protein (from UniProt P06701 1-978) (natural protein)”, the stoichiometry N (molecules of Sir3 per array) in assay [2] and in assay [1] was 22 each time.
